# Article PMC12329521
# Like-named read-outs stand apart in the source and are kept apart here.
# How the values were obtained:
# Experiment in all cases: SEC
# [1] = biological target: Rv2531c (apo) (Mycobacterium tuberculosis)
# [2] = biological target: Rv2531c (apo) (Mycobacterium tuberculosis); remark: listed apart in the source
# [3] = biological target: PLP-bound Rv2531c (Mycobacterium tuberculosis)
Substance,stoichiometry N [1],stoichiometry N [2],stoichiometry N [3]
Rv2531c (apo) (enzyme),4,4,–
PLP-bound Rv2531c (enzyme),–,–,2
